Assay results taken from publication PMC9160799, “PET Imaging of Acidic Tumor Environment With ^89Zr-labeled pHLIP Probes” (Frontiers in Oncology, 2022).
Where “and” joins values, the source holds several entries; their conditions need not be identical. Equal entries are not always repeated. Entries after “also recorded” stand apart in the source; their conditions may differ. Square brackets hold non-standard residues; d marks the D form. Peptide text beside a SMILES is read from it. * marks the point of attachment. X1 = CC(=O)N(O)CCCCCNC(=O)CCC(=O)N(O)CCCCCNC(=O)CCC(=O)N(O)CCCCCNC(=O)CCC(=O)N(O)CCCCCNC(=S)Nc1ccc(NC(=S)*)cc1

How the values were obtained:
[1] = Tryptophan fluorescence spectra of pHLIP agents in states I, II, III; format: physicochemical; settings: for λmax of tryptophan fluorescence, state I: in solution; for λmax of tryptophan fluorescence, state I / λmax of tryptophan fluorescence, state II: pH 8, 25.0°C; for λmax of tryptophan fluorescence, state III / λmax of tryptophan fluorescence, state II: with POPC liposomes; for λmax of tryptophan fluorescence, state III: pH 4, 25.0°C
Experimental: (§1) The interaction of the pHLIP agents with liposomes was investigated by recording the tryptophan fluorescence and circular dichroism (CD) spectra by using a PC1 spectrofluorometer (ISS, Inc) and an MOS-450 spectrometer (Biologic, Inc), respectively, with temperature control set to 25.0°C. Liposomes, consisting of large unilamellar vesicles, were prepared by extrusion. POPC (1-palmitoyl-2-oleoyl-sn-glycero-3-phosphocholine) (Avanti Polar Lipids, Inc.) in chloroform was desolvated on a rotary evaporator and dried under vacuum for several hours. The phospholipid film was rehydrated in 10 mM phosphate buffer, pH 8.0, vortexed, and passed 21 times through the extruder (50 nm membrane).
(§2) Using an excitation wavelength of 295 nm, tryptophan fluorescence spectra were recorded from 310–400 nm. CD spectra were recorded from 190–260 nm with 1-nm steps. The concentration of the peptide and the POPC liposomes varied in different experiments: 5–15 μM of pHLIP agents and 1 mM of POPC liposomes.
The pH-dependent insertion of the peptides into the lipid bilayer of the POPC liposomes was studied by monitoring either the changes in tryptophan fluorescence spectra or changes in the molar ellipticity at 222 nm as a function of the pH value. After the addition of aliquots of HCl, the pH values of the solutions containing peptide and POPC liposomes were measured using an Orion PerHecT ROSS Combination pH Micro Electrode and an Orion Dual Star pH and ISE Benchtop Meter. Fluorescence spectra were analyzed using the Protein Fluorescence and Structural Tool Kit (PFAST) ([41]) to determine the positions of spectral maxima (λ max ). The λ max and millidegree data were normalized to 0–1 and were plotted as a function of pH. The pH-dependence was fit with the Henderson-Hasselbach equation to determine the cooperativity (n) and the mid-point (pK) of transition: […]

[2] = pH-dependent insertion into lipid bilayer of POPC liposomes (Trp fluorescence and CD); format: physicochemical; settings: with Zr, pH drop 8 to 3, Henderson-Hasselbalch fit
Experimental: as §1, §2
The pH-dependent insertion of the peptides into the lipid bilayer of the POPC liposomes was studied by monitoring either the changes in tryptophan fluorescence spectra or changes in the molar ellipticity at 222 nm as a function of the pH value. After the addition of aliquots of HCl, the pH values of the solutions containing peptide and POPC liposomes were measured using an Orion PerHecT ROSS Combination pH Micro Electrode and an Orion Dual Star pH and ISE Benchtop Meter. Fluorescence spectra were analyzed using the Protein Fluorescence and Structural Tool Kit (PFAST) ([41]) to determine the positions of spectral maxima (λ max ). The λ max and millidegree data were normalized to 0–1 and were plotted as a function of pH. The pH-dependence was fit with the Henderson-Hasselbach equation to determine the cooperativity (n) and the mid-point (pK) of transition:
Normalized pH dependence=1/1+10^n(pH−pK)

[3] = test system: kidney uptake of [89Zr]Zr-DFOsqa-Lys-Var3; assay: Kidney-blocking study (PET imaging); format: in vivo, healthy female SCID mice; settings: drug IV 30 min before 7.4 MBq [89Zr]Zr-DFOsqa-Lys-Var3 (1.2 nmol); two doses per drug, n=2 each; PET 24 h p.i. vs control mice
Experimental: The imaging and biodistribution studies were performed with male (RM-1 model) and female (4T1 model) athymic nude mice and the kidney-blocking experiments were performed with female SCID mice received from Charles River Laboratories (Stone Ridge, NY). After arrival, the mice were kept in the MSK vivarium for one week before any experimental handling was performed. The animals were allowed free access to water and food, and all animal care and experimental procedures were approved by the Institutional Animal Care and Use Committee (IACUC). For the subcutaneous allografts, a 1-to-1 ratio of Corning Matrigel Matrix and the cell solution was prepared and stored on ice for the injections. Each mouse received a subcutaneous injection of 100 µL (50 µL cell solution, viability > 90%, + 50 µL Matrigel) into the flank on the level of the right shoulder. The injections were performed under anesthesia (2% isoflurane, Baxter Healthcare, Deerfield, IL, USA). Palpable tumors of similar size (100–300 mm^3) developed 5–8 days after grafting.
PET images were obtained at the respective timepoints with the mice under anesthesia (2% isoflurane) on a microPET Focus 120 (Concorde Microsystems) or an Inveon PET-CT (Siemens) rodent scanner. All images were analyzed using the Medical Imaging Data Examiner Amide (version 0.9.0) or the Inveon reconstruction software suite. The counting rates in the reconstructed images were converted to percent of injected dose per weight (%ID/g) by applying a system-specific calibration factor. At the final timepoint, the remaining mice were euthanized (by CO2 asphyxiation, followed by cervical dislocation) and their tumors were resected for histological analysis.
Additional experiments were performed to investigate the influence of various kidney-uptake blockers and diuretics. Healthy female SCID mice received a “blocking agent” 30 minutes prior to the injection of [^89Zr]Zr-DFOsqa-Lys-Var3 (7.4 MBq/200 µCi, 1.2 nmol). […] The experimental set-up can be found in Table S6 .
Table S6. Summary of the kidney-blocking study. Healthy female SCID mice (2 mice per experiment/ dosage + 2 control mice without treatment, total of 22 mice) received a blocking agent intravenously 30 minutes prior to the injection of 7.4 MBq/200 µCi [89Zr]Zr-DFOsqa-Lys-Var3 (1.2 nmol pHLIP).
The drug dose was calculated as weight of drug (mg) per weight of mouse (kg). A potential kidney […]
calibrated images to the control mice (24 hours post injection). No drug led to a significant reduction […]
drug (IV 30 min before dose [mg/kg] effect on kidney mechanism of action [89Zr]Zr-pHLIP) (n=2) uptake […]
and water from the body; acts as a diuretic […]
organic anion transporter; blocks the uptake of organic anions […]
tubule via inhibition of the Na/Cl symporter; acts as a diuretic […]
increased – serum levels decreased

[4] = change of Trp fluorescence maximum

Structure (SMILES): CC(=O)N[C@H](C)C(=O)N[C@H](CCCCNC(=S)Nc1ccc(NC(=S)NCCCCCN(O)C(=O)CCC(=O)NCCCCCN(O)C(=O)CCC(=O)NCCCCCN(O)C(=O)CCC(=O)NCCCCCN(O)C(C)=O)cc1)C(=O)N[C@H](CC(=O)O)C(=O)N[C@H](CC(=O)O)C(=O)N[C@H](CCC(N)=O)C(=O)N[C@H](CC(N)=O)C(=O)N1CCC[C@@H]1C(=O)N[C@H](Cc1c[nH]c2ccccc12)C(=O)N[C@H](CCCNC(=N)N)C(=O)N[C@H](C)C(=O)N[C@H](Cc1ccc(O)cc1)C(=O)N[C@H](CC(C)C)C(=O)N[C@H](CC(=O)O)C(=O)N[C@H](CC(C)C)C(=O)N[C@H](CC(C)C)C(=O)N[C@H](Cc1ccccc1)C(=O)N1CCC[C@@H]1C(=O)N[C@@H](C(=O)N[C@H](CC(=O)O)C(=O)N[C@@H](C(=O)N[C@H](CC(C)C)C(=O)N[C@H](CC(C)C)C(=O)N[C@H](CC(C)C)C(=O)N[C@H](CC(=O)O)C(=O)N[C@H](CC(C)C)C(=O)N[C@H](CC(C)C)C(=O)N[C@H](Cc1c[nH]c2ccccc12)C(=O)N[C@H](C)C(=O)O)[C@H](C)O)[C@H](C)O (89Zr complex, metal not drawn) [DFO*-Lys-Var3] (Ac-[dA][dK](X1)[dD][dD][dQ][dN][dP][dW][dR][dA][dY][dL][dD][dL][dL][dF][dP][dT][dD][dT][dL][dL][dL][dD][dL][dL][dW][dA]-OH; C-terminus assumed)
- λmax of tryptophan fluorescence, state I ([1]; with Zr, excitation 295 nm): 352.0 nm
- λmax of tryptophan fluorescence, state III ([1]; with Zr): 341.4 nm
- λmax of tryptophan fluorescence, state II ([1]; with Zr): 348.2 nm
- λmax of tryptophan fluorescence, state I ([1]; without Zr): 351.9 nm
- λmax of tryptophan fluorescence, state III ([1]; without Zr): 341.4 nm
- λmax of tryptophan fluorescence, state II ([1]; without Zr): 349.3 nm
- cooperativity (n), Fluor. [2, 4]: 0.79 and 0.8
- midpoint of transition (pK), Fluor. [2, 4]: 5.87
- cooperativity (n), CD ([2]; ellipticity at 222 nm (coil-helix transition)): 1.46
- midpoint of transition (pK), CD ([2]; ellipticity at 222 nm): 5.47

Structure (SMILES): CCCN(CCC)S(=O)(=O)c1ccc(C(=O)O)cc1 [probenecid]
- effect on kidney uptake [3]: not significant; also recorded: none of these drugs led to a significant reduction of kidney uptake

Structure (SMILES): N=C(N)NC(=O)c1nc(Cl)c(N)nc1N [amiloride]
- effect on kidney uptake [3]: not significant; also recorded: none of these drugs led to a significant reduction of kidney uptake

Structure (SMILES): NS(=O)(=O)c1cc(C2(O)NC(=O)c3ccccc32)ccc1Cl (stereo not shown) [chlorthalidone]
- effect on kidney uptake [3]: not significant; also recorded: none of these drugs led to a significant reduction of kidney uptake
